Test results from patent US20130224222A1.

Target: thioredoxin (endogenous, mouse mediobasal hypothalamus extracts) (mouse) (UniProt P10639)
Assay: cell-based or functional assay

UniProt P10639, sequence (P10639 whole entry): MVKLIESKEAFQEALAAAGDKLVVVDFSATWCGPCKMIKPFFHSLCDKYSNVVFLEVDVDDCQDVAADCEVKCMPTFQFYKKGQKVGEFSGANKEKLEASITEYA

Substance: human thioredoxin-interacting protein (hTXNIP) (from UniProt Q9H3M7 1-391)
- thioredoxin activity in the MBH (insulin-reducing assay) (fold decrease): 2

Substance: thioredoxin-interacting protein (TXNIP), endogenous mouse (from UniProt Q8BG60 1-397)
- thioredoxin activity in the MBH (insulin-reducing assay) after TXNIP shRNA knockdown: 50 % increase
